Substrate: O=CC(O)COP(=O)(O)O
Assay: purified protein
Type: biochemical, Saccharomyces cerevisiae
Conditions: 1 mM ribose-5-phosphate, 10 mM ammonium sulfate (20 mM NH4), 50 mM Tris-HCl pH 8.0, 37 °C, 85 µM Snz3p, no glutaminase subunit, racemic D/L substrate

B1: Snz3p (Saccharomyces cerevisiae S288C) (protein)
chain: MSEFKVKTGLAQMLKGGVIMDVVTPEQAIIAERAGACAVMALERIPADMRKSGQVCRMSDPRMIKEIMEAVSIPVMAKVRIGHFVEAQILEELQVDYIDESEVLTPADWTHHIEKHNFKVPFVCGAKDLGEALRRINEGAAMIRTKGEAGTGDVSEAVKHITKIKAEIQQYKENLKTESDFAAKATELRVPVDLLKTTLSEGKLPVVNFAAGGVATPADAALLMQLGCEGVFVGSGIFKSSDPEKLACAIVEATTHYDNPAKLLQVSSDLGDLMGGISIQSINEAGGKNGARLSEIGW
notes: full-length SNZ3 in pTEV5 (NheI/NcoI), His6 tag removed with rTEV, expressed in E. coli BL21-AI; assayed without Sno glutaminase subunit
  Km: 290 ± 30 µM
  kcat: 0.0007 s⁻¹

— paper PMC6385983, “SNZ3 Encodes a PLP Synthase Involved in Thiamine Synthesis in Saccharomyces cerevisiae” (G3: Genes|Genomes|Genetics, 2018)
